These results are taken from patent US10253082B2, “Long-acting insulin and use thereof” (HANMI PHARM. CO., LTD., priority 2014, dated 2019).

This assay concerns the target Insulin receptors (Homo sapiens, UniProt P06213). The assay can be described thus: Insulin receptor binding affinity by surface plasmon resonance (BIACORE 3000). The note with it: for ka / kd: SPR, immobilized insulin receptor, 1:1 Langmuir binding with baseline drift, Test 1-5 runs; for receptor binding affinity (KD) compared to human insulin: native human insulin of the same test = 100%. As to the method: Then, the insulin receptor binding affinity of each substance was examined. The binding affinity of each substance was calculated using BIAevaluation software. At this time, the model used was 1:1 Langmuir binding with baseline drift.

With “Insulin analog (No. 7): insulin analog, modified sequence B^25F->A; protein SEQ ID NO: 32”, the ka is reported as 0.14 1/Ms, ×10^5; the kd is 8.34 1/s, ×10^−3; the “receptor binding affinity (KD) compared to human insulin” value was “(9.9%)”.

In the case of “Insulin analog (No. 9): insulin analog, modified sequence A^14Y->N; protein SEQ ID NO: 36”, the ka was 1.85 1/Ms, ×10^5; the kd is recorded as 11.9 1/s, ×10^−3; the “receptor binding affinity (KD) compared to human insulin” value is listed as “(78.8%)”.

Consider “Insulin analog (No. 8): insulin analog, modified sequence A^14Y->E; protein SEQ ID NO: 34”, for which the ka is reported as 1.78 1/Ms, ×10^5; the kd is listed as 12.9 1/s, ×10^−3; the “receptor binding affinity (KD) compared to human insulin” value is reported as “(57.1%)”.

For “Insulin analog (No. 6): insulin analog, modified sequence B^24F->A; protein SEQ ID NO: 30”, the ka is 0.28 1/Ms, ×10^5; the kd is given as 6.60 1/s, ×10^−3; the “receptor binding affinity (KD) compared to human insulin” value is listed as “(14.8%)”.
